Assay [1] addresses T1, ErbB2 extracellular domain (recombinant) (UniProt P04626 23-652, limits assumed).
T1 construct: extracellular domain; also called whole ectodomain of erbB2; full-size erbB2 ectodomain
Kind of assay: SPR; peptide 10 µM preinjected over immobilized ErbB2, then ErbB3 (300 nM) with HRGβ1 (5 µM); competitor: erbB3-HRGβ1. In general terms: In SPR one partner is held on a chip, and binding of the other changes the refractive index at the surface.

Assay [2] has as its target T2, ErbB3 extracellular domain (recombinant, soluble) (UniProt P21860 20-643, limits assumed).
T2 construct: extracellular domain; also called ectodomain of erbB3
Description: SPR (Biacore 3000), peptide injected over immobilized receptor extracellular domain.

For assay [3], the target named is T3, ErbB1 extracellular domain (recombinant, soluble) (UniProt P00533 25-645, limits assumed).
T3 construct: extracellular domain; also called erbB1 ectodomain; EGFr
Described as above.

Assay [4] deals with T1, ErbB2 extracellular domain (recombinant). The description is as above.
Assay [5] has as its target T2, ErbB3 extracellular domain …. Kind of assay: SPR; peptide 10 µM preinjected over immobilized ErbB3, then ErbB3 (300 nM) with HRGβ1 (5 µM); competitor: erbB3-HRGβ1.
The target of assay [6] is TNF receptor (immobilized, control). Kind of assay: SPR (Biacore 3000), peptide injected over immobilized TNF receptor (control).
The target in assay [7] is T3, ErbB1 extracellular domain …. Description: SPR; peptide 10 µM preinjected over immobilized ErbB1, then ErbB3 (300 nM) with HRGβ1 (5 µM); competitor: erbB3-HRGβ1.
The target in assay [8] is T4, erbB2 receptor, native full-length, on transfected 32D cells (32D-E2/E4 and 32D-E2/E3) (UniProt P04626 23-1255, limits assumed).
T4 construct: whole, on cells
Description: inhibition of heregulin-induced erbB2-erbB4 dimerization on 32D-E2/E4 cells, chemical cross-linking and immunoblot, dose dependence; 32D-E2/E4 cells; heregulin-induced erbB2-erbB4 heteromerization. A general note: In western blotting, separated proteins are transferred to a membrane and probed.

In assay [9] the target is TNF receptor (immobilized, control). Kind of assay: SPR (Biacore 3000), control peptide injected over immobilized TNF receptor (control).
Assay [10] concerns the target T2, ErbB3 extracellular domain …. Kind of assay: SPR (Biacore 3000), control peptide injected over immobilized receptor extracellular domain.
The target of assay [11] is T3, ErbB1 extracellular domain …. Described as above.
The target in assay [12] is T1, ErbB2 extracellular domain (recombinant). The description is as above.
In assay [13] the target is T3, ErbB1 extracellular domain …. Kind of assay: SPR (Biacore), global fit to the 1:1 Langmuir model; receptor taken as erbB1 by the KD of 0.21 µM.
Assay [14] deals with T5, erbB2-SbdIV (recombinantly expressed subdomain IV of erbB2, GST fusion protein) (UniProt P04626 511-652).
T5 construct: domain: subdomain IV; Expressed in E. coli BL-21 (DE3) and eluted from glutathione sepharose; no removal of GST is told; also called erbB2-Sbd W; not shown: glutathione S-transferase of the pGEX-5X-3 vector (N-terminal fusion partner)
Kind of assay: SPR (Biacore), peptide over immobilized erbB2-SbdIV.

Bridge positions count the residues as written; N and C are the ends. Ends that are not written are not given here.

T2 sequence (P21860 20-643 limits assumed): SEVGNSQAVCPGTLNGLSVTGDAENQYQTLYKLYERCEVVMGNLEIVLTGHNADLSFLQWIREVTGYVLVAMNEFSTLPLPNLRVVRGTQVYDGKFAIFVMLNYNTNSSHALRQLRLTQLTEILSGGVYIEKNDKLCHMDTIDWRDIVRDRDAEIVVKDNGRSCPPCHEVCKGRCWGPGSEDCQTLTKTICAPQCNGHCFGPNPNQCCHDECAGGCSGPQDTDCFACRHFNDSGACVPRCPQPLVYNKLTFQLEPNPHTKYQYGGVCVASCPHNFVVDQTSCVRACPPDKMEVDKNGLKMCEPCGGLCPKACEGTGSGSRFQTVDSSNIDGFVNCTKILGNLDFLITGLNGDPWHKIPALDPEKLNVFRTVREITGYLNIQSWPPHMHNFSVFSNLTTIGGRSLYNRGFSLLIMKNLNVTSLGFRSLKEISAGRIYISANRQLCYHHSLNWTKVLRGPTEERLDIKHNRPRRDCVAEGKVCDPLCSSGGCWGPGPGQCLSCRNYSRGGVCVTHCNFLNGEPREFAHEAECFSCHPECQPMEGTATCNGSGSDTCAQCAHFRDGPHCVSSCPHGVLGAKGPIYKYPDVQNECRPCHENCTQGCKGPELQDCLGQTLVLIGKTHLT

By Kd is commonly meant the free concentration of one partner at which half of the binding sites on the other are occupied at equilibrium, for simple one-to-one binding. For YCPIYKYPDVQCY (disulfide 2-12 (inferred)) [B3-S22-APQ (derived from erbB3)], the “Percent Inhibition” value came out at 58.1% in assay [1], 32.4% in [5] and 69% in assay [7]. In addition, the Kd in assay [2] is 1.07 µM; in assay [3] it was 0.472 µM; in assay [4] it was 0.549 µM; in [6], more than 1000 µM.

The IC50 is the concentration that gives 50% inhibition. A lower IC50 goes with greater potency. For YCFPDEEGACY (disulfide 2-10 (inferred)) [B2-S22-AFA (derived from erbB2)], the results for the “Percent Inhibition” value in [1], in assay [5] and in [7] were 82.5%, 61.7% and 78.4%, respectively. In addition, the Kd in assay [2] was 0.429 µM; in [3], 0.407 µM; in [4], 0.302 µM; in assay [6] it was more than 1000 µM. It took 0.8 µM to reach half-maximal inhibition in [8] (IC50).

With YCLVWKYADAGCY (disulfide 2-12 (inferred)) [B1-S22-ALG (derived from erbB1)], the results for the “Percent Inhibition” value in assay [1], in assay [5] and in assay [7] were 71.4%, 75.1% and 65.2%, respectively. For the same molecule, the Kd in assay [2] is 0.288 µM; in [3], 0.449 µM; in assay [4] it was 0.371 µM; in assay [6] it was more than 1000 µM.

As for FCYIGEVEDQCY (disulfide 2-11 (inferred), also called control peptide) [CD4-G (CD4 receptor-derived cyclic peptide, negative control)], the Kd in assay [9], in assay [10], in assay [11] and in [12] was more than 1000 µM each time.

For the molecule YCFIFKYADPDCY (disulfide 2-12 (inferred)) [B4-S22-AFD (derived from erbB4)], the “Percent Inhibition” value in assay [1] amounted to 54.2%; in assay [5], 72.8%; in assay [7], 60.3%. For the same molecule, the Kd in assay [2] was 0.394 µM; in assay [3], 0.583 µM; in assay [4] it was 0.639 µM; in assay [6] it was more than 1000 µM.

The term koff denotes a measure of how fast the partners let go of each other. What is called kon is the second-order rate constant of association. For the molecule YCPIWKFPDEECY (disulfide 2-12 (inferred)) [B2-S22-APE (derived from erbB2)], the off-rate (koff) in assay [13] was determined as 0.000685 s⁻¹; in assay [14] it was 0.00307 s⁻¹. Also, the results for the kon in assay [13] and in assay [14] were 3240 M⁻¹ s⁻¹ and 1620 M⁻¹ s⁻¹, respectively. Besides, the “Percent Inhibition” value in assay [1] was found to be 51.1%; in assay [5], 42.7%; in assay [7] it was 80.3%. In addition, the equilibrium dissociation constant (Kd) is 1.4 µM in assay [2]; 0.21 µM in assay [3]; 1.53 µM in [4]; more than 1000 µM in assay [6]; 1.89 µM in assay [14].
